The record followed here is patent US20240067758A1 (UCB, published 2024).

The chains are these.
T1: Human IL22 (human, UniProt Q9GZX6 34-179)
T1 construct: IL22 of the Biacore and cell assays
T1 sequence: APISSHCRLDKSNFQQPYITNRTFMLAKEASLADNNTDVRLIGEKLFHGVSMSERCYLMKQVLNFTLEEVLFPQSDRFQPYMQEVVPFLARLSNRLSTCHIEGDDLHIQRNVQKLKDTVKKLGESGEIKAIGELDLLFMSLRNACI

B1: 11041gL1 C91S gH1 D54E (Fab, V domains shown)
VH: EVQLVESGGGLVQPGGSLRLSCAVSGFSLSSYAMIWVRQAPGKGLEWIGIIDIEGSTYYASWAKGRFTISRDSSKNTVYLQMNSLRAEDTAVYYCARDRFVGVDIFDPWGQGTLVTVSS
VL: AVVLTQSPSSLSASVGDRVTITCQASEDIYTNLAWYQQKPGKAPKLLIYWASTLASGVPSRFSGSGSGTDFTLTISSLQPEDFATYYCQASVYGNSADSRYTFGGGTKVEIK
notes: V-regions only; also called 11041gL2gH3
B2: 11041gL6 C91S gH5 D54E (Fab, V domains shown)
VH: B1 VH with S73N
VL: B1 VL with V3Q
notes: also called 11041gL11gH14
B3: 11041gL6 C91S S96A gH8 D54E (Fab, V domains shown)
VH: B1 VH with V78L
VL: AVQLTQSPSSLSASVGDRVTITCQASEDIYTNLAWYQQKPGKAPKLLIYWASTLASGVPSRFSGSGSGTDFTLTISSLQPEDFATYYCQASVYGNAADSRYTFGGGTKVEIKR
notes: also called 11041gL13gH15
B4: 11041gL1gH5 (Fab, V domains shown)
VH: B1 VH with E54D, S73N
VL: B1 VL with S91C
notes: V-regions only
B5: 11041gL7 C91S gH5 D54E (Fab, V domains shown)
VH: B1 VH with S73N
VL: B1 VL with V2I, V3Q
notes: also called 11041gL12gH14
B6: 11041gL7 C91S S96A gH5 D54E (Fab, V domains shown)
VH: B1 VH with S73N
VL: B1 VL with V2I, V3Q, S96A
notes: also called 11041gL14gH14
B7: 11041gL6 C91S gH11 D54E (Fab, V domains shown)
VH: B1 VH with I48V, S73N, V78L
VL: B1 VL with V3Q
notes: V-regions only; also called 11041gL11gH17
B8: 11041gL7 C91S gH11 D54E (Fab, V domains shown)
VH: B1 VH with I48V, S73N, V78L
VL: B1 VL with V2I, V3Q
notes: V-regions only; also called 11041gL12gH17
B9: 11041gL1gH1 (Fab, V domains shown)
VH: B1 VH with E54D
VL: B1 VL with S91C
notes: Human Fab format (human kappa, human gamma-1 CH1); V-regions only
B10: 11041gL1 N95D gH1 (Fab, V domains shown)
VH: B1 VH with E54D
VL: B1 VL with S91C, N95D
notes: V-regions only; also called 11041gL8gH1
B11: 11041gL6 C91S gH8 D54E (Fab, V domains shown)
VH: B1 VH with V78L
VL: B1 VL with V3Q
notes: V-regions only; also called 11041gL11gH15
B12: 11041gL6 C91S S96A gH12 D54E (Fab, V domains shown)
VH: B1 VH with G49S, S73N, V78L
VL: B3 VL
notes: also called 11041gL13gH18
B13: 11041gL7 C91S S96A gH11 D54E (Fab, V domains shown)
VH: B1 VH with I48V, S73N, V78L
VL: B1 VL with V2I, V3Q, S96A
notes: V-regions only; also called 11041gL14gH17
B14: 11041gL1gH1 D107E (Fab, V domains shown)
VH: B1 VH with E54D, D107E
VL: B1 VL with S91C
notes: V-regions only; also called 11041gL1gH4
B15: 11041gL1 C91S S96AgH18 (Fab, V domains shown)
VH: B1 VH with G49S, S73N, V78L
VL: B1 VL with S96A
notes: V-regions only; also called 11041gL10gH18; gH18 = gH12 D54E
B16: 11041gL6 C91S S96A gH11 D54E (Fab, V domains shown)
VH: B1 VH with I48V, S73N, V78L
VL: B3 VL
notes: also called 11041gL13gH17
B17: 11041gL1 C91S gH9 (Fab, V domains shown)
VH: B1 VH with V24A, E54D
VL: B1 VL
notes: V-regions only; also called 11041gL2gH9
B18: 11041gL6gH1 (Fab, V domains shown)
VH: B1 VH with E54D
VL: B1 VL with V3Q, S91C
notes: V-regions only
B19: 11041gL1 C91S S96AgH15 (Fab, V domains shown)
VH: B1 VH with V78L
VL: B1 VL with S96A
notes: V-regions only; also called 11041gL10gH15; gH15 = gH8 D54E
B20: 11041gL1gH1 G55A (Fab, V domains shown)
VH: B1 VH with E54D, G55A
VL: B1 VL with S91C
notes: V-regions only; also called 11041gL1gH2
B21: 11041gL1 S96A gH1 (Fab, V domains shown)
VH: B1 VH with E54D
VL: B1 VL with S91C, S96A
notes: V-regions only; also called 11041gL9gH1
B22: 11041gL7 C91S gH8 D54E (Fab, V domains shown)
VH: B1 VH with V78L
VL: B1 VL with V2I, V3Q
notes: V-regions only; also called 11041gL12gH15
B23: 11041gL1gH1 D54E (Fab, V domains shown)
VH: B1 VH
VL: B1 VL with S91C
notes: V-regions only; also called 11041gL1gH3
B24: 11041gL6 C91S gH12 D54E (Fab, V domains shown)
VH: B1 VH with G49S, S73N, V78L
VL: B1 VL with V3Q
notes: V-regions only; also called 11041gL11gH18
B25: 11041gL7 C91S S96A gH12 D54E (Fab, V domains shown)
VH: B1 VH with G49S, S73N, V78L
VL: B1 VL with V2I, V3Q, S96A
notes: V-regions only; also called 11041gL14gH18
B26: 11041gL7 C91S gH12 D54E (Fab, V domains shown)
VH: B1 VH with G49S, S73N, V78L
VL: B1 VL with V2I, V3Q
notes: V-regions only; also called 11041gL12gH18
B27: 11041gL7 C91S S96A gH8 D54E (Fab, V domains shown)
VH: B1 VH with V78L
VL: B1 VL with V2I, V3Q, S96A
notes: V-regions only; also called 11041gL14gH15
B28: 11041gL7gH1 (Fab, V domains shown)
VH: B1 VH with E54D
VL: B1 VL with V2I, V3Q, S91C
notes: V-regions only
B29: 11041gL1 C91S S96A gH5 D54E (Fab, V domains shown)
VH: B1 VH with S73N
VL: B1 VL with S96A
notes: heavy chain is the gH5 D54E (gH14) Fab heavy chain; also called 11041gL10gH14
B30: 11041gL1 S96A gH1 D54E (Fab, V domains shown)
VH: B1 VH
VL: B1 VL with S91C, S96A
notes: V-regions only; also called 11041gL9gH3
B31: 11041gL1gH8 (Fab, V domains shown)
VH: B1 VH with E54D, V78L
VL: B1 VL with S91C
notes: V-regions only
B32: 11041gL1 C91S S96AgH17 (Fab, V domains shown)
VH: B1 VH with I48V, S73N, V78L
VL: B1 VL with S96A
notes: V-regions only; also called 11041gL10gH17; gH17 = gH11 D54E
B33: 11070gL1gH13 (Fab, V domains shown)
VH: EVQLQESGPGLVKPSQTLSLTCTVSGFSLTSYSVHWVRQHSGKGLEWMGRMWSDGDTSYNTAFTSRLTISRDTSKSQVSLKLSSVTAADTAVYYCARSLDFYYDTTLAFWGQGTTVTVSS
VL: DIVMTQSPSSVSASVGDRVTITCKASKTISKYLAWYQQKPGKANKLLIYSGSTLQSGTPSRFSGSGSSTDFTLTISSLQPEDFATYYCQQHNEYPLTFGQGTKLEIK
notes: V-regions only; also called 11070gL1gH1 S61T
B34: 11070gL7gH16 Fab (Fab, V domains shown)
VH: B33 VH with S41P, M48I, S76N
VL: DIQMTQSPSSVSASVGDRVTITCKASKTISKYLAWYQQKPGKANKLLIYSGSTLQSGVPSRFSGSGSGTDFTLTISSLQPEDFATYYCQQHNEYPLTFGQGTKLEIKR
notes: also called VR11070
B35: 11070gL1gH1 (Fab, V domains shown)
VH: B33 VH with T61S
VL: B33 VL
notes: V-regions only

Changes are numbered by the printed parent chain. Names may count otherwise.

The first assay addresses T1, Human IL22. Put plainly: SPR (Biacore); Fab variant, human IL22.
B1 showed a Kd of 0.0281 nM.
On the same count and under the same terms, in the case of B2 it was 0.0161 nM; in that of B3, 0.0849 nM.
Same read-out and setting: in the case of B4 it was 0.378 nM.
Consider B5, for which binding was characterised by a dissociation constant (Kd) of 0.0293 nM.
On the same count and under the same terms, then B6, with 0.0266 nM; and B7, with 0.0516 nM; and B8, with 0.0666 nM.
Same read-out and setting: then B9, with 0.642 nM.
Molecule B10 gave a Kd of 0.129 nM. Compared with the last molecule, the Kd is about 5-fold lower.
As to B11, the affinity, expressed as Kd, was 0.106 nM.
Still for that read-out and setting: in the case of B12 it was 0.0517 nM; in that of B13, 0.0617 nM; in that of B14, 0.657 nM.
Same read-out and setting: then B15, with 0.0454 nM.
B16 displayed a Kd of 0.0524 nM.
On the same count and under the same terms, then B17, with 0.0114 nM.
Still for that read-out and setting: in the case of B18 it was 0.369 nM.
Still for that read-out and setting: then B19, with 0.079 nM; and B20, with 0.627 nM; and B21, with 0.2 nM.
B22: the Kd was 0.115 nM.
On to B23, for which the Kd worked out at 0.166 nM.
Still for that read-out and setting: then B24, with 0.0444 nM; and B25, with 0.0676 nM; and B26, with 0.0739 nM.
Same read-out and setting: then B27, with 0.104 nM.
The same measure, in the same setting: then B28, with 0.446 nM.
B29 came in with a Kd of 0.0233 nM.
Same read-out and setting: in the case of B30 it was 0.0888 nM; in that of B31, 0.274 nM.
The same measure, in the same setting: then B32, with 0.0398 nM.

The next assay deals with T1, Human IL22. Put plainly: SPR (Biacore); Fab variant, human IL22. This is another data set of the same source.
B33 returned a Kd of 0.0317 nM.
In the case of B34, the Kd turned out to be 0.0257 nM.
Molecule B35 came in with a Kd of 0.0368 nM.

As a reminder, the Kd is the constant that tells how readily two partners part at equilibrium.
